Here are results for two molecules from patent CN116284368A.

Some results are limits rather than exact numbers.

In the assay the target is T1, 临床全血样本裂解液中的MxA蛋白 (human) (UniProt P20591).
T1 sequence (looked up): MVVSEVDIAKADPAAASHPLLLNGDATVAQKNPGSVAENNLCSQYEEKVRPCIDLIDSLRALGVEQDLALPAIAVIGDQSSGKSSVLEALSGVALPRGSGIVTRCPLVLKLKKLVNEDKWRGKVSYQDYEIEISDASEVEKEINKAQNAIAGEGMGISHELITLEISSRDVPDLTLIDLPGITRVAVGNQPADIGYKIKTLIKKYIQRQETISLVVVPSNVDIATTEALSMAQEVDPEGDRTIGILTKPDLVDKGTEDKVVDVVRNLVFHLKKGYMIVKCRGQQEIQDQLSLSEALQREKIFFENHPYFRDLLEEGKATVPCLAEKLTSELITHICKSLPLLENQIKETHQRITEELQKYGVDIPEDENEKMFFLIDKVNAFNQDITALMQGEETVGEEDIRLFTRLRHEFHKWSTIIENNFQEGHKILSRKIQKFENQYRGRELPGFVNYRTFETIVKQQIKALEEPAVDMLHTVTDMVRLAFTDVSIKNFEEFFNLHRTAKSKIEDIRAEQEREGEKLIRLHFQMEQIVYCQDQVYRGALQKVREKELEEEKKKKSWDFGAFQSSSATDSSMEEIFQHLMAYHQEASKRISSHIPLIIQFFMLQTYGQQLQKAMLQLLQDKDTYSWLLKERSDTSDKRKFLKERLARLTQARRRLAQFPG
Kind of assay: sandwich ELISA on clinical whole-blood lysates, antibody A coated (capture), antibody B-HRP detection.

B1: 抗体A (MxA-A抗体) (antibody, V domains shown)
VH: EVQLVETGGGLVQPKGSLIVSCAASGFTFNRSAMNWVRQAPGKGLEWVARIRTKSNNYATYYADSVKDRFTISRDDSQSMLYLQMNNLKTEDTAMYYCVGGSDFAYWGQGTLVTVSA
VL: DIQMTQTTSSLSASLGDRVTISCRASQDISNYLNWFQQKPDGTVKLLIYYTSRLYSGVPSRFSGSGSGTDYSLTITNLEQEDIATYFCQQGNTLPLTFGAGTKLELK
On to B1, for which the OD450 was above 0.6 OD450.

B2: 抗体B (MxA-B抗体) (antibody, V domains shown)
VH: QVQLQQSGAELARPGASVKLSCKASGYTFTSYWILWLKQRPGQGLEWIGAVYPGDGDTRYTQKFKGKATLTADKSSSTAYMQLSSLASEDSAVYYCARGYDNSFDYWGQGTTLTVSS
VL: DVLMTQTPLSLPVSLGDQASISCRTSQTIVHSNGNTYLEWYLQKPGQSPKLLIYKVSNRFSGVPDRFSGSGSGTDFTLKISRVEAEDLGVYYCFQGSHVPPTFGAGTKLELK
B2 came in with an OD450 above 0.6 OD450.
